These results are taken from paper PMC4108476.

The data set has as its target T1, [2Fe-2S]-IscR wild type (Escherichia coli, UniProt P0AGK8 1-162).
T1 sequence: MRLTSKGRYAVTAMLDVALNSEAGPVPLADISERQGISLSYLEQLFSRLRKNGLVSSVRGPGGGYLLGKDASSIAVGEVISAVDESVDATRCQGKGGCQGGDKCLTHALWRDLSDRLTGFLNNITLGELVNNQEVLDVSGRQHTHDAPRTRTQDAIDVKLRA
Put plainly: fluorescence anisotropy.

B1: PiscR site B 30-mer (dsDNA)
DNA 1: AAATAGTTGACCAATTTACTCGGGAATGTC
DNA 2: GACATTCCCGAGTAAATTGGTCAACTATTT
With B1, the Kd – broadly, the concentration at which binding is half-saturated – came to 112 ± 2 nM.
